These results are taken from PMC12260524, “Identification of a VPS29 isoform with restricted association to Retriever and Retromer accessory proteins through autoinhibition” (Proceedings of the National Academy of Sciences of the …, 2025).

For the assay, the target named is GST-VPS29C (human) (UniProt F8VXU5). The experiment in a line: ITC; 300 μM peptide titrated into 10 μM GST-tagged VPS29C, 25 °C, 50 mM Tris-HCl pH 7.5, 200 mM NaCl, 2 mM β-mercaptoethanol; single-site model.

In turn, “VPS35L 28 to 37 (from UniProt Q7Z3J2 28-37) (peptide)” yielded a Kd above 100 µM.

For orientation: Kd means the equilibrium constant for the complex coming apart. A low value points to tighter binding.
